ATPase activity of the Spa47 oligomer formed in vitro by concentrating the monomer to ~200 μM ((μmol ADP/min) /mg Spa47), ATPase activity of the isolated monomeric Spa47 before its conversion to oligomer ((μmol ADP/min) /mg Spa47) and ATP hydrolysis rate (normalized for enzyme concentration) of monomeric Spa47 as a function of enzyme concentration data for 1 substance are collected here from PMC6980540.

In assay [1] the target is Spa47 (Shigella T3SS ATPase), wild-type (S. flexneri) (UniProt P0A1C1).
Assay [2] has the same target. This is another data set of the same source.

Turning to “Spa47 (Shigella T3SS ATPase), wild-type (from UniProt P0A1C1 1-430) (enzyme)”, in assay [1], the ATPase activity of the Spa47 oligomer formed in vitro by concentrating the monomer to ~200 μM ((μmol ADP/min) /mg Spa47) turned out to be 1.5 and the ATPase activity of the isolated monomeric Spa47 before its conversion to oligomer ((μmol ADP/min) /mg Spa47) is 0.11. This substance also returned an ATP hydrolysis rate (normalized for enzyme concentration) of monomeric Spa47 as a function of enzyme concentration in assay [2] of 3 fold.
